Several values for one entry are separate records, joined by “and”; a condition that tells them apart may be missing. Equal values may be shown once.
B1: H69A, Q7SID9 (parent)
chain: STGPVAPLPTPPNFPNDIALFQQAYQNWSKEIMLDATWVCSPKTPQDVVRLANWAHEHDYKIRPRGAMHGWTPLTVEKGANVEKVILADTMTHLNGITVNTGGPVATVTAGAGASIEAIVTELQKHDLGWANLPAPGVLSIGGALAVNAHGAALPAVGQTTLPGHTYGSLSNLVTELTAVVWNGTTYALETYQRNDPRITPLLTNLGRCFLTSVTMQAGPNFRQRCQSYTDIPWRELFAPKGADGRTFEKFVAESGGAEAIWYPFTEKPWMKVWTVSPTKPDSSNEVGSLGSAGSLVGKPPQAREVSGPYNYIFSDNLPEPITDMIGAINAGNPGIAPLFGPAMYEITKLGLAATNANDIWGWSKDVQFYIKATTLRLTEGGGAVVTSRANIATVINDFTEWFHERIEFYRAKGEFPLNGPVEIRCCGLDQAADVKVPSVGPPTISATRPRPDHPDWDVAIWLNVLGVPGTPGMFEFYREMEQWMRSHYNNDDATFRPEWSKGWAFGPDPYTDNDIVTNKMRATYIEGVPTTENWDTARARYNQIDPHRVFTNGFMDKLLP

Variants of: B1
Settings: Brevibacterium sterolicum; pH 7.5; 15 °C; Urea; Fluorescence; Potassium phosphate 50 mM; reversible: Yes (partial); structure 2I0K; whole UniProt chain shown

Variant	denaturant midpoint (higher = more stable)	unfolding free energy
STGPVAPLPTPPNFPNDIALFQQAYQNWSKEIMLDATWVCSPKTPQDVVRLANWAHEHDYKIRPRGAMAGWTPLTVEKGANVEKVILADTMTHLNGITVNTGGPVATVTAGAGASIEAIVTELQKHDLGWANLPAPGVLSIGGALAVNAHGAALPAVGQTTLPGHTYGSLSNLVTELTAVVWNGTTYALETYQRNDPRITPLLTNLGRCFLTSVTMQAGPNFRQRCQSYTDIPWRELFAPKGADGRTFEKFVAESGGAEAIWYPFTEKPWMKVWTVSPTKPDSSNEVGSLGSAGSLVGKPPQAREVSGPYNYIFSDNLPEPITDMIGAINAGNPGIAPLFGPAMYEITKLGLAATNANDIWGWSKDVQFYIKATTLRLTEGGGAVVTSRANIATVINDFTEWFHERIEFYRAKGEFPLNGPVEIRCCGLDQAADVKVPSVGPPTISATRPRPDHPDWDVAIWLNVLGVPGTPGMFEFYREMEQWMRSHYNNDDATFRPEWSKGWAFGPDPYTDNDIVTNKMRATYIEGVPTTENWDTARARYNQIDPHRVFTNGFMDKLLP [H69A]	2.9 M and 3.5 M and 2.7 M	1.53 kcal/mol and 1.36 kcal/mol and 1.2 kcal/mol

— FireProtDB (doi:10.1110/ps.073137708)
